B1: TPR 5TU (parent)
chain: GGAUCUUCUCGAUCUAACAAAAAAGACAAAUCUGCCACAAAGCUUGAGAGCAUCUUCGGAUGCAGAGGCGGCAGCCUUCGGUGGCGCGAUAGCGCCAACGUUCUCAACUAUGACACGCAAAACGCGUGCUCCGUUGAAUGGAGUUUAUCAUG

Variants at the floor of the assay were thinned out.

The variants in the data set derive from B1. Kind of data set: polymerase ribozyme fitness, log enrichment relative to wild type (log ratio); higher = more active; in vitro selection for triplet polymerase activity. An outline of the steps: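 Fitness compares each genotype's enrichment to that of the wild type on a logarithmic scale, averaging replicates with inverse-variance weights. The logarithm is base 2. Enrichment came from Illumina sequencing of input and output libraries after one triplicate round of in vitro selection, which included frozen incubation at −7 °C, of PCR-built, transcribed mutant libraries of each subunit of a heterodimeric triplet polymerase ribozyme. Only genotypes with ≥10 input reads and ≥1 read per output were kept.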
With GGUUCUUUUCGAUCUAACAAAAAAGACAAAUCUGCCACAAAGCUUGAGAGCAUCUUCGGAUGCAGAGGCGGCAGCCUUCGGUGGCGCGAUAGCGCUAACGUUCUCAACUAUGACACGCAAAACGCGUGCUCCGUUGAAUGGAGUUUAUCAUG, the “polymerase ribozyme fitness (log ratio)” value was -1.89.

For the variant GGUUCUUGUCGAUCUAACAAAAAAGACAAAUCUGCCACAAAGCUUGAGAGCAUCUUCGGAUGCAGAGGCGGCAGCCUUCGGUGGCGCGAUAGCGCCAACGUUCUCAACUAUGACACGCAAAACGCGUGCUCCGUUGAAUGGAGUUUAUCAUG, the “polymerase ribozyme fitness (log ratio)” value is not above -4.2.

Turning to GGUUCUUUUCGAUCUAACAAAAAAGACAAAUCUGCCACAAAGCUUGAGAGCAUCUUCGGAUGCAGAGGCGGCAGCCUUCGGUGGCGCGAUAGCGCCAACGUUCUCAACUAUGACACGCAAAACGCGUGCUCCGUUGAAUGGAGUUUAUCAUG, the “polymerase ribozyme fitness (log ratio)” value is -0.611.

Regarding GGUUCUUCUCGAUCUAACAAAAAAGACAGAUCUGCCACAAAGCUUGAGCGCAUCUUCGGAUGCAGAGGCGGCAGCCUUCGGUGGCGCGAUAACGCCAACGUUCUCAACUAUGACACGCAAAACUCGUGCUCCGUUGAAUAGAGUUUAUCAUG, the “polymerase ribozyme fitness (log ratio)” value is not above -4.2.

As to GGUUCUUCUCGAUCUAACAAAAAAGACAAAUCUGCCACAAAGCUUGAGAGCAUCUUCGGAUGCAGAGGCGGCGGCCUUCGGUGGCUCGAUAGCGCCAACGUUCUCAACUAUGACACGCAAAACGCGUGAUCCGUUGGAUGGAGUUUAUCAUG, the “polymerase ribozyme fitness (log ratio)” value was not above -4.2.

Regarding GGUUCUUCUCGAUCUAACAAAAAAGACAAAUCUGCCACAAAGCUUGAGAGCAUCUUCGGAUGCAGAGGCGGCAGCCUUCGGUGGCGCGAUCGCGCCAACGUUCUCAACUAUGACACGCAAAACGCGUGCUCCGUUGAAUGGAGUUUAUCAUG, the “polymerase ribozyme fitness (log ratio)” value was -3.34.

On to GGUUCUUAUCGAGCUAACAAAAAAGACAAAUCUGCCACAAAGCUUGAGAGCAUCUUCGGAUGCAGAGGCGGCAGCCUUCGGUGGCGCGAAAGAGCCAACGUUCUCAGCUAUGACACGCAAAACGCGUGCUCCGUUGAAUGGACUUUAUCAUG, for which the “polymerase ribozyme fitness (log ratio)” value is not above -4.2.

Regarding GGUUCUUCUCGAUCUAACAAAAAAGACAAAUCUGCCACAAAGCUUGCGAGCAUCUUAGGAUGCAGAGGCGGCAGCCUUCGGUGGCGCGAUAGCGCCAACGUUCUCAACUAUGACACGCAAAACGCGUGCUCCGUUGAAUGGAGUUUAUCAUG, the “polymerase ribozyme fitness (log ratio)” value was -0.307.

As for GGUUCUUCUCGAUCUAACAAAAAGGACAAAUGUGCCACAAAGCUUGAGAGCAUCUUCGGAUGCAGAGGCGGCAGCCUUCGGUGGCGCGAUAGCGCCAACGUUCUCAACUAUGACACGCAAAACGCGUGCUCCGUUGAAUGGAGUUUAUCAUG, the “polymerase ribozyme fitness (log ratio)” value was -4.15.

Take GGUUCUUCUCGAUCUAACAAAAAAGACAAAUCUGCCACAAAGCUUGAGUGCAUCCUCGGAUGCAGAGGCGGCAGCCUUCGGUGGCGCGAUUGCGCCAACGUUCUCAACUAUGACACGCAAAACGCGUGCUCCGUUGAAUGGAGUUUAUCAUG: the “polymerase ribozyme fitness (log ratio)” value is not above -4.2.

Regarding GGUUGUUCUCGAUCUAACUAAAAAGACAAAUCUGCUACAAAGCUUGAGAGCAUCUUCGGAUGCAGAGGCGGCAGCCUUCGGUAGCGCGAUAGCGCCAACGUUCUCAACUAUGACACGCAAAACGCGUGCUCCGUUGAAUGGAGUUUAUCAUG, the “polymerase ribozyme fitness (log ratio)” value is -3.1.

Take GGUUCUUCUCGAUGUAACAAAAAAGACAAUUCUGCCACAAAGCUUGAGAGCAUCGUCGGAUGCAGAGGCGGCAGCCUUCGGUGGCGCGAUAGCGUCAACGUUCUCAACUAUGACACGCAAAACGCGUGCUCCGUUGAAUGGAGUUUAUCAUG: the “polymerase ribozyme fitness (log ratio)” value is not above -4.2.

With GGUUCUUUUCGAUCUAACAAAAAAGAACAAUCUGCCACAAAGCUUGAGAGACUAUUCGGAUGCAGAGGCGGCAGCCUUCGGUGGCGCGAUAGUGCCAACGUUGUCAAGUAUGACCCGAAAAACGCGUGCUCCGUAGAAUGGUGUUUAUCAUG, the “polymerase ribozyme fitness (log ratio)” value is not above -4.2.

As for GGUUCUUCUCGAUCUAACAAAAAAGACAAUUCUGCCACAAAGCUUGAGAGCAUCUUCGGAUGCAGAGGCGGCAGCCUUCGGUGGCUUGAUAGCGCCAACGUUCUCAACUAUGACACGCAAAACGCGUGCUCCGUUGAAUGGAGUUUAUCAUG, the “polymerase ribozyme fitness (log ratio)” value is not above -4.2.

Regarding GGUUCUUCUCGAUCUAACAAAAAAGGCAAAUCUGCCACAAAGCUUGAGAGCAUCUUCGGAAGCAGAGGCGGCAGCCUUCGGUGGCGCGAUAACGCCAACGUUCUCAACUAUGACACGCAAAACGCGUGCUCCGUUGAAUGGAGUUUAUCAUG, the “polymerase ribozyme fitness (log ratio)” value was not above -4.2.

As for GGUUCUUCUCGAUCUAACAAAAAAGACAAAUCUGCCACAAAGCUUGAGAGCCUCUUCGGAUGCAGAGGCGGCAGCCUUCGGUGGCUCGAUAGCGCCAACGUUCUCAACUAUGACACGCUAAACGCGUGCUCCGUUGAAUGUAGUUUAUCAUG, the “polymerase ribozyme fitness (log ratio)” value was -3.78.

As for GGUUCUUUUCGAUGUAACCAAAAAGACAAAUCAGCCACAAAGCUUGAGAGCCUCUUCGGAUGCAGAGGCAGCAGCCUUGGGUGGCGGGAUAGCGCCAACGUUCUCAACUAUGACACGCAAAACGCGUGCUCCGUUGAAUGGAGUUUAUCAUU, the “polymerase ribozyme fitness (log ratio)” value is not above -4.2.

Regarding GGUUCUUCUCGAUCUAACAAAAAAGACCAAUCUGCCACAAAGCUUGAGAGCAUCUUCGGAUGCAGAGGCGGCAGCCUUCGGUGACGCGAUAGCGCCAACGUUCUCAACUAUGACACUCUAAACUCGUGCUCCGUUGAAUGGAGUUUAUCAUG, the “polymerase ribozyme fitness (log ratio)” value is not above -4.2.

As for GGUUCUUCUCGAUCUAACAAAAAAGACAAAUCUGCCACAAAGCUUGCGAGCAUCUUCGGAUGCAGAGGCGGCAGCCUUCGGUGGCGCGAUAGUGCCAACGUUCUCAACUAUGACACGUAAAACGCGUGCUCCGUUGAAUGGAGUUUAUCAUG, the “polymerase ribozyme fitness (log ratio)” value was -2.05.

For the origin of these results see the RNAGym collection of RNA variant scans (doi:10.1073/pnas.2313332121).
